Measurements: patent publication US20240270846A1 (published 2024)
Where a chain is given by its changes, count along the chain named. Names and notes keep the numbering of the source.

B1: CE115HA000/GLS3000 R54E one-arm antibody (antibody, human IgG1, kappa, L234A L235A, N297A, name in Kabat numbering)
heavy: QVQLVESGGGVVQPGRSLRLSCAASGFTFSNAWMHWVRQAPGKGLEWVAQIKAKSNNYATYYAESVKGRFTISRDDSKNSLYLQMNSLKTEDTAVYYCRYVHYGAYYGVDAWGQGTTVTVSSASTKGPSVFPLAPSSKSTSGGTAALGCLVKDYFPEPVTVSWNSGALTSGVHTFPAVLQSSGLYSLSSVVTVPSSSLGTQTYICNVNHKPSNTKVDKKVEPKSCDKTHTCPPCPAPEAAGGPSVFLFPPKPKDTLMISRTPEVTCVVVDVSHEDPEVKFNWYVDGVEVHNAKTKPREEQYASTYRVVSVLTVLHQDWLNGKEYKCKVSNKALPAPIEKTISKAKGQPREPQVYTLPPSRCELTKNQVSLSCAVKGFYPSDIAVEWESNGQPENNYKTTPPVLDSDGSFFLVSKLTVDKSRWQQGNVFSCSVMHEALHNHYTQKSLSLSPDYKDDDDK
chain: EPKSSDKTHTCPPCPAPELLGGPSVFLFPPKPKDTLMISRTPEVTCVVVDVSHEDPEVKFNWYVDGVEVHNAKTKPREEQYNSTYRVVSVLTVLHQDWLNGKEYKCKVSNKALPAPIEKTISKAKGQPREPQVCTLPPSRDELTKNQVSLWCLVKGFYPSDIAVEWESNGQPENNYKTTPPVLDSDGSFFLYSKLTVDKSRWQQGNVFSCSVMHEALHNRYTQKSLSLSP
light: DIVMTQSPLSLPVTPGEPASISCRSSQSLVHSNRNTYLHWYQQKPGQAPRLLIYKVSNEFSGVPDRFSGSGSGTDFTLKISRVEAEDVGVYYCGQGTQVPYTFGQGTKLEIKRTVAAPSVFIFPPSDEQLKSGTASVVCLLNNFYPREAKVQWKVDNALQSGNSQESVTEQDSKDSTYSLSSTLTLSKADYEKHKVYACEVTHQGLSSPVTKSFNRGEC
notes: one-arm IgG1
B2: CE115HA000/GLS3000 R54W one-arm antibody (antibody, human IgG1, kappa, L234A L235A, N297A, name in Kabat numbering)
heavy: B1 heavy
chain: B1 chain
light: B1 light with E59W
notes: one-arm IgG1
B3: CE115HA000/GLS3000 S56R one-arm antibody (antibody, human IgG1, kappa, L234A L235A, N297A, name in Kabat numbering)
heavy: B1 heavy
chain: B1 chain
light: B1 light with E59R, S61R
notes: one-arm IgG1
B4: CE115HA000/GLS3000 R54Q one-arm antibody (antibody, human IgG1, kappa, L234A L235A, N297A, name in Kabat numbering)
heavy: B1 heavy
chain: B1 chain
light: B1 light with E59Q
notes: one-arm IgG1
B5: CE115HA000/GLS3000 S56P one-arm antibody (antibody, human IgG1, kappa, L234A L235A, N297A, name in Kabat numbering)
heavy: B1 heavy
chain: B1 chain
light: B1 light with E59R, S61P
notes: one-arm IgG1
B6: CE115HA000/GLS3000 T31I one-arm antibody (antibody, human IgG1, kappa, L234A L235A, N297A, name in Kabat numbering)
heavy: B1 heavy
chain: B1 chain
light: B1 light with T36I, E59R
notes: one-arm IgG1
B7: CE115HA000/GLS3000 S56T one-arm antibody (antibody, human IgG1, kappa, L234A L235A, N297A, name in Kabat numbering)
heavy: B1 heavy
chain: B1 chain
light: B1 light with E59R, S61T
notes: one-arm IgG1
B8: CE115HA000/GLS3000 T31E one-arm antibody (antibody, human IgG1, kappa, L234A L235A, N297A, name in Kabat numbering)
heavy: B1 heavy
chain: B1 chain
light: B1 light with T36E, E59R
notes: one-arm IgG1
B9: CE115HA000/GLS3000 R54T one-arm antibody (antibody, human IgG1, kappa, L234A L235A, N297A, name in Kabat numbering)
heavy: B1 heavy
chain: B1 chain
light: B1 light with E59T
notes: one-arm IgG1
B10: CE115HA000/GLS3000 S52P one-arm antibody (antibody, human IgG1, kappa, L234A L235A, N297A, name in Kabat numbering)
heavy: B1 heavy
chain: B1 chain
light: B1 light with S57P, E59R
notes: one-arm IgG1
B11: CE115HA000/GLS3000 S56K one-arm antibody (antibody, human IgG1, kappa, L234A L235A, N297A, name in Kabat numbering)
heavy: B1 heavy
chain: B1 chain
light: B1 light with E59R, S61K
notes: one-arm IgG1
B12: CE115HA000/GLS3000 S56L one-arm antibody (antibody, human IgG1, kappa, L234A L235A, N297A, name in Kabat numbering)
heavy: B1 heavy
chain: B1 chain
light: B1 light with E59R, S61L
notes: one-arm IgG1
B13: CE115HA000/GLS3000 S56M one-arm antibody (antibody, human IgG1, kappa, L234A L235A, N297A, name in Kabat numbering)
heavy: B1 heavy
chain: B1 chain
light: B1 light with E59R, S61M
notes: one-arm IgG1
B14: CE115HA000/GLS3000 S52Q one-arm antibody (antibody, human IgG1, kappa, L234A L235A, N297A, name in Kabat numbering)
heavy: B1 heavy
chain: B1 chain
light: B1 light with S57Q, E59R
notes: one-arm IgG1
B15: CE115HA000/GLS3000 S56Q one-arm antibody (antibody, human IgG1, kappa, L234A L235A, N297A, name in Kabat numbering)
heavy: B1 heavy
chain: B1 chain
light: B1 light with E59R, S61Q
notes: one-arm IgG1
B16: CE115HA000/GLS3000 S56H one-arm antibody (antibody, human IgG1, kappa, L234A L235A, N297A, name in Kabat numbering)
heavy: B1 heavy
chain: B1 chain
light: B1 light with E59R, S61H
notes: one-arm IgG1
B17: CE115HA000/GLS3000 S52Y one-arm antibody (antibody, human IgG1, kappa, L234A L235A, N297A, name in Kabat numbering)
heavy: B1 heavy
chain: B1 chain
light: B1 light with S57Y, E59R
notes: one-arm IgG1
B18: CE115HA000/GLS3000 T31K one-arm antibody (antibody, human IgG1, kappa, L234A L235A, N297A, name in Kabat numbering)
heavy: B1 heavy
chain: B1 chain
light: B1 light with T36K, E59R
notes: one-arm IgG1
B19: CE115HA000/GLS3000 T31N one-arm antibody (antibody, human IgG1, kappa, L234A L235A, N297A, name in Kabat numbering)
heavy: B1 heavy
chain: B1 chain
light: B1 light with T36N, E59R
notes: one-arm IgG1
B20: CE115HA000/GLS3000 S56I one-arm antibody (antibody, human IgG1, kappa, L234A L235A, N297A, name in Kabat numbering)
heavy: B1 heavy
chain: B1 chain
light: B1 light with E59R, S61I
notes: one-arm IgG1
B21: CE115HA000/GLS3000 S56W one-arm antibody (antibody, human IgG1, kappa, L234A L235A, N297A, name in Kabat numbering)
heavy: B1 heavy
chain: B1 chain
light: B1 light with E59R, S61W
notes: one-arm IgG1
B22: CE115HA000/GLS3000 R54G one-arm antibody (antibody, human IgG1, kappa, L234A L235A, N297A, name in Kabat numbering)
heavy: B1 heavy
chain: B1 chain
light: B1 light with E59G
notes: one-arm IgG1
B23: CE115HA000/GLS3000 S56V one-arm antibody (antibody, human IgG1, kappa, L234A L235A, N297A, name in Kabat numbering)
heavy: B1 heavy
chain: B1 chain
light: B1 light with E59R, S61V
notes: one-arm IgG1
B24: CE115HA000/GLS3000 S56D one-arm antibody (antibody, human IgG1, kappa, L234A L235A, N297A, name in Kabat numbering)
heavy: B1 heavy
chain: B1 chain
light: B1 light with E59R, S61D
notes: one-arm IgG1
B25: CE115HA000/GLS3000 R54P one-arm antibody (antibody, human IgG1, kappa, L234A L235A, N297A, name in Kabat numbering)
heavy: B1 heavy
chain: B1 chain
light: B1 light with E59P
notes: one-arm IgG1
B26: CE115HA000/GLS3000 R54S one-arm antibody (antibody, human IgG1, kappa, L234A L235A, N297A, name in Kabat numbering)
heavy: B1 heavy
chain: B1 chain
light: B1 light with E59S
notes: one-arm IgG1
B27: CE115HA000/GLS3000 S56Y one-arm antibody (antibody, human IgG1, kappa, L234A L235A, N297A, name in Kabat numbering)
heavy: B1 heavy
chain: B1 chain
light: B1 light with E59R, S61Y
notes: one-arm IgG1
B28: CE115HA000/GLS3000 S56F one-arm antibody (antibody, human IgG1, kappa, L234A L235A, N297A, name in Kabat numbering)
heavy: B1 heavy
chain: B1 chain
light: B1 light with E59R, S61F
notes: one-arm IgG1
B29: CE115HA000/GLS3000 S52D one-arm antibody (antibody, human IgG1, kappa, L234A L235A, N297A, name in Kabat numbering)
heavy: B1 heavy
chain: B1 chain
light: B1 light with S57D, E59R
notes: one-arm IgG1
B30: CE115HA000/GLS3000 T31D one-arm antibody (antibody, human IgG1, kappa, L234A L235A, N297A, name in Kabat numbering)
heavy: B1 heavy
chain: B1 chain
light: B1 light with T36D, E59R
notes: one-arm IgG1
B31: CE115HA000/GLS3000 S56N one-arm antibody (antibody, human IgG1, kappa, L234A L235A, N297A, name in Kabat numbering)
heavy: B1 heavy
chain: B1 chain
light: B1 light with E59R, S61N
notes: one-arm IgG1
B32: CE115HA000/GLS3000 S56E one-arm antibody (antibody, human IgG1, kappa, L234A L235A, N297A, name in Kabat numbering)
heavy: B1 heavy
chain: B1 chain
light: B1 light with E59R, S61E
notes: one-arm IgG1
B33: CE115HA000/GLS3000 T92A one-arm antibody (antibody, human IgG1, kappa, L234A L235A, N297A, name in Kabat numbering)
heavy: B1 heavy
chain: B1 chain
light: B1 light with E59R, T97A
notes: one-arm IgG1
B34: CE115HA000/GLS3000 T31P one-arm antibody (antibody, human IgG1, kappa, L234A L235A, N297A, name in Kabat numbering)
heavy: B1 heavy
chain: B1 chain
light: B1 light with T36P, E59R
notes: one-arm IgG1
B35: CE115HA000/GLS3000 S56G one-arm antibody (antibody, human IgG1, kappa, L234A L235A, N297A, name in Kabat numbering)
heavy: B1 heavy
chain: B1 chain
light: B1 light with E59R, S61G
notes: one-arm IgG1

target: T1, CD3 epsilon homodimer protein (UniProt P07766 23-126); test: SPR (Biacore T200), CD3e homodimer on CM4 chip, antibody as analyte; KD ratio vs unaltered GLS3000;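 further: CD3 epsilon homodimer amine-coupled to the sensor surface, antibodies injected as analyte at 25 °C with HBS-EP+ running buffer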
T1 construct: also called CD3 (CD3 epsilon)
T1 sequence (P07766 23-126): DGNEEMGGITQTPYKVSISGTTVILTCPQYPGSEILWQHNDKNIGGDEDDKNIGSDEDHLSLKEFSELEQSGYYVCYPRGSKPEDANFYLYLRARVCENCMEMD
Method: An appropriate amount of CD3 epsilon homodimer protein was immobilized onto Sensor chip CM4 (GE Healthcare Japan Corp.) by the amine coupling method. Then, the antibody having an appropriate concentration was injected thereto as an analyte and allowed to interact with the CD3 epsilon homodimer protein on the sensor chip. Then, the sensor chip was regenerated by the injection of 10 mmol/L glycine-HCl (pH 1.5). The assay was conducted at 25 degrees C., and HBS-EP+(GE Healthcare Japan Corp.) was used as a running buffer. […] Each parameter was calculated using Biacore T200 Evaluation Software (GE Healthcare Japan Corp.).
Specifically, when the amount of the GLS3000-containing antibody bound was defined as X and the amount of the L chain one-amino acid altered form bound was defined as Y, a value of Z (ratio of amounts bound)=Y/X was used.

Binder	KD ratio to GLS3000 [ratio]
B1	0.84
B2	0.65
B3	1.15
B4	1.04
B5	0.98
B6	1.1
B7	1.01
B8	1.59
B9	0.89
B10	7.38
B11	1.21
B12	1.03
B13	0.93
B14	1.01
B15	0.97
B16	0.96
B17	1.02
B18	0.88

Binder	KD ratio to GLS3000 [ratio]
B19	4.46
B20	1.01
B21	1.12
B22	0.88
B23	0.94
B24	1.11
B25	1.05
B26	0.78
B27	1.1
B28	1.12
B29	0.94
B30	30.9
B31	0.9
B32	0.91
B33	1.35
B34	10.8
B35	0.99
